Assay results from paper PMC12000561.

Tested on: MUTYH WT (MBP fusion) (Homo sapiens)
Experiment: EMSA
Conditions: EMSA: DNA mix 40 mM Tris pH 7.6, 2 mM EDTA, 200 mM NaCl (printed '200 M'), 20% glycerol, 0.2 mg/ml BSA, 2 mM DTT, 20 pM duplex, mixed 1:1 with enzyme in 20 mM …

Substance	Kd (upper limit estimate, THF (abasic analog) opposite 8-oxoguanine) [pM]	Kd (table unit header missing, 2'-fluoro-2'-deoxyadenosine opposite 8-oxoguanine) [pM]
Duplex 2 THF:OG (product analog), 30 bp	< 10	
Duplex 2 fA:OG (substrate analog), 30 bp		32
